These results are taken from the nanobody polyreactivity screen of Harvey et al. (2022).

The nature of the data set: yeast display, Sf9 membrane polyspecificity reagent, FACS + sequencing; frameworks hold sequencing errors. An outline of the steps:
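A nanobody's polyreactivity label depends on the gate it was sorted from. Yeast display cells were stained with 10% biotinylated, detergent-solubilized Sf9 membrane reagent for 1 hour at 4 °C, enriched on streptavidin microbeads and sorted by FACS. The low and high (top ~1%) gates were set on anti-HA fluorescence for expression and streptavidin fluorescence for reagent binding.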
Turning to “QVQLVESGGGLVQAGGSLRVICAASGSIGRYAMGWSRQAPGKERELVAAISSSGGSTYYADSVKGRFTISRDNAKNTVYLQMNSLKPEDTAGYYCAACPGAQEDDYWGPGTQVTVSS”, the “polyreactivity (PSR sort gate)” value is “high polyreactivity”.

As to “QVQLVESGGGLVQAGGSLRVSCAASGFIFGLYAMGWYRQAPGKERELVATISWDGGSTYYADSVKGRFTISRDNAKNTVYLQMNSLKPEDTAVYYCAATYLYRSPYVPMDYWGQGSQVTVSS”, the “polyreactivity (PSR sort gate)” value is on record as “low polyreactivity”.

As for “QVQLVESGGGLVQAGGSLRVSCAASGFIFSYSAMGWYRQAPGKERELVAAISRSGGRTYYADSVKGRFTISRDNAKNTVYLQMNSLKPEDTAVYYCAAPVSLRPIYDYWGHGTQVTVSS”, the “polyreactivity (PSR sort gate)” value is reported as “high polyreactivity”.

On to “QVQLVESGGGLVQAGGSLRVSCAASGFTFPYSAMGWYRQAPGKERELVAAIDWTGGSTYYADSVKGRFTISRDNPKNTVNLQINSLIPDDTAVYYCARDVDYYISSPTPPVVELDYWGQGTQVTVSS”, for which the “polyreactivity (PSR sort gate)” value is recorded as “low polyreactivity”.

Regarding “QVQLVESGGGLVQAGGSLRVSCAASGIIFDYYVMGWYRQAPGQERELVAAISRSCDRTNYADSVKGRFTISRDNAKNTVYLQMNSLKPEDTAVYYCAARVSIRGGGYEYWGQGTQLTVSS”, the “polyreactivity (PSR sort gate)” value is “high polyreactivity”.

Consider “QVQLVESGGGLVQAGGSLRVSCAASGLTFGDYTMGWYRQAPGKERELVAAISTAGGSTYYADSVKGRFTISREHANNTVYLHMNSLKPEDTAVYYCNARRTHTRSHYYYWGQGTQVTVSS”, for which the “polyreactivity (PSR sort gate)” value is reported as “high polyreactivity”.

Consider “QVQLVESGGGLVQAGGSLRVSCAASGRIFASYAMGWYRQAPGKERELVAAISLSGGSTYYADSVKGRFTISRDNAKNTVFLQMNSLKPEDTAVYYCAAKNYRRYRDYYWGQGTQVTVSS”, for which the “polyreactivity (PSR sort gate)” value was “high polyreactivity”.

Turning to “QVQLVESGGGLVQAGGSLRVSCAASGRIFKSNAMGWYRPAPGKERELVASSTASGGRTYYADSVKGRFTISRDNAKNTVYLQMNSLKPEDTAVYYCAAGRPFSKYGYWGQGTQVTVTS”, the “polyreactivity (PSR sort gate)” value was “high polyreactivity”.

“QVQLVESGGGLVQAGGSLRVSCAASGRILPRYAMGWYRQAPGKEREFVARIDSGGSTNYADSVKGRFTISRDNAKNTVYIQMNSLKPEDTAVYYCAAVGTAQAYAYFTYGYDYWGQGTQVTVSS”: the “polyreactivity (PSR sort gate)” value is listed as “low polyreactivity”.

For “QVQLVESGGGLVQAGGSLRVSCAASGRTFIKYAMGWYRQAPGKERELVAAISRNGGSTNYADSVKGRFTISRDNAKNTVYFQMNSLKPEDTAVYYCAAVGTVSRTVGYNYWGQGTQVTVSS”, the “polyreactivity (PSR sort gate)” value is listed as “high polyreactivity”.

For the sequence “QVQLVESGGGLVQAGGSLRVSCAASGRTFLSYTMGWYRPAPGKERQLVARISASGGSTYYADSVKGRFTISRDNAKITVYLQMNSLKPEDTAVYYCARVPYYLYYVTRPYDYWGQGTLVTVSS”, the “polyreactivity (PSR sort gate)” value is “low polyreactivity”.

Take “QVQLVESGGGLVQAGGSLRVSCAASGSIFGPYAMGLYRQAPGKERELVATSTYYADSVKGRFTISRDNAKNTVYLQMHRLKPEDTAVYYCAKTPYYSGYGWGYDYWGQGTQVTVSS”: the “polyreactivity (PSR sort gate)” value is “low polyreactivity”.

For the sequence “QVQLVESGGGLVQAGGSLRVSCAASGSIFGTYAMGWYRPAPGKERELVAAITSDGVDTYYADSVKGRFTISRDNAKNTVYLQMNSLKPEDTEVYYCAAEYEGLYGYGYWGQGTQVTVSS”, the “polyreactivity (PSR sort gate)” value was “high polyreactivity”.

“QVQLVESGGGLVQAGGSLRVSCAASGSIFKIYAMGWYRLAPGKERELVASITGSGGSTYYADSVKGRFTISRDNAKNTVYLQRNCLKPEDTAVYYCAAAVLGSSKSEVDPDRPEYYYWGQGTQVTVSS”: the “polyreactivity (PSR sort gate)” value is listed as “low polyreactivity”.

With “QVQLVESGGGLVQAGGSLRVSCAASGSIFLIYGMGWYRQAPGKERELVAAITARGGSTYYADSVKGRFTISRDNAKNTVYLQMNSLKPEDTAVYYCNADGYPDVGAGTYGYWGLGTQVTVSS”, the “polyreactivity (PSR sort gate)” value is “low polyreactivity”.

For “QVQLVESGGGLVQAGGSLRVSCAASGSIFYTYVMGWYREAPGKERELVAAISGTGGRTYYADSVKGRFTISRDNAKNTVYLQMNSLKPEDTAVYYCAALYNRVNGHYYWGQGTQVTVSS”, the “polyreactivity (PSR sort gate)” value is given as “high polyreactivity”.

“QVQLVESGGGLVQAGGSLRVSCAASGSSFTYNAMGWYRQAPGKERELVASINSRGGTTYYADSVKGRFTISRDNAKNTVYFQMNSLKPEDTAVYYCATDVYRLGEYDYWGQGTQVTVSS”: the “polyreactivity (PSR sort gate)” value is recorded as “low polyreactivity”.

Regarding “QVQLVESGGGLVQAGGSLRVSCAASGSTFRHYAMGWSRQAPGKEWELVAAISSTGGSTYYADSVKGRFTISRDNAKNTVYLQMNSLKPEDTAVYYCAARRLYWGQGTQVTVSS”, the “polyreactivity (PSR sort gate)” value is “high polyreactivity”.

Consider “QVQLVESGGGLVQAGGSLRVSCAASGSTFTDYDMVWYRQAPGKERELVAAITSGGSTNYADSVKGRFTISRDNAKNTVYLHMNSLKPEDTAVYYCNAERDSPTLNLDRGWEYDYWGQGTQVTVSS”, for which the “polyreactivity (PSR sort gate)” value is given as “low polyreactivity”.

Turning to “QVQLVESGGGLVQAGGSLRVSCAASGSTFTWYAMGWYRQAPGKVRELVAAIRWSGGNTYYADSVKGRFTISRDNAKNTVFLQMNSLKPEDTAVYYCNAYQYFPRYDYWGQGTQVTVSS”, the “polyreactivity (PSR sort gate)” value is reported as “high polyreactivity”.

In the case of “QVQLVESGGGLVQAGGSLRVSCAASGSTFYIYAMGWSRQAPGKERELVARISGSGGSTYYADSVKGRFTISRDYAKNTVYLLMNSLKPEDTAVYYCAADDIYKYYQYYAFPYSRYDYWGQGTQLTVSS”, the “polyreactivity (PSR sort gate)” value is “low polyreactivity”.

As to “QVQLVESGGGLVQAGGSLRVSCAASGYTFLRYAMGWYRQAPGKERELVAAISWSTGSTYYADSVKGRFTISRDNAKNTVYLQMNSLKPEDTAVYYCAAAGRHSGGRFYYWGQGTQVTVSS”, the “polyreactivity (PSR sort gate)” value is “high polyreactivity”.

Take “QVQLVESGGGLVQAGGSLRVSCAASVRTLFGNALGWYRQAPGKERELLAAISFSGGRTEYADSVKGRFTISRDNAMNTVYLQMNSLKPEDTAVYYCAARTYSAPRNRYYYWGQGTQVTVSS”: the “polyreactivity (PSR sort gate)” value is “high polyreactivity”.

With “QVQLVESGGGLVQAGGSLRVSCASSGRIFVYDMGWYRQAPGKERELVAAITRGGSTKYADSVKGRFTISRDNAKNTVFLQMNSLKPADTAVYYCAADTRRYRFYYWGQGTQVSVSS”, the “polyreactivity (PSR sort gate)” value is reported as “high polyreactivity”.

Regarding “QVQLVESGGGLVQAGGSLRVSCASSGSTFVSYAMVWYRQAPGKERELVASISGSDGRTYYADSVKGRFTISRDNAKNTVYLQMKSLNPEDTAVYYCAKRYWRHPVFYLYDYWVQGTQVTVSS”, the “polyreactivity (PSR sort gate)” value is “high polyreactivity”.

Take “QVQLVESGGGLVQAGGSLRVSSAASGRIFSIYAMGWYRQAPGKERELVAAISFRGTSTYADSVKGRFTISRDNAKNTVYLQMNSLKPEDTAVYFCAVSGFDVLWPSLGGELDYWGQGTQVTVSS”: the “polyreactivity (PSR sort gate)” value is “low polyreactivity”.

Take “QVQLVESGGGLVQAGGSLRVSSAASGSIFDYYEMGWYRQAPGKEREMVAAINISGGDTYYADSVKGRFTISRDNAKNTVYLQMNSLNPEDTAVYYCAADWVTWWFSRVGWDYGYWGQGTQVTVSS”: the “polyreactivity (PSR sort gate)” value is on record as “low polyreactivity”.

For the sequence “QVQLVESGGGLVQAGGSLRYSCAASGSIFYWYAMGWDRQAPGKERELVAGITYSGGNTYYADSVKGRFTISRDNAKNTVYLQMNSLKPEDTAVYDCAATRGYWRKWRMDYWGQGTQVTVSS”, the “polyreactivity (PSR sort gate)” value was “high polyreactivity”.

For “QVQLVESGGGLVQAGGSLSISCAASGITLGHNAMGWYRQAPGKDRELVAAISWSGDRTFYADSVKGRFTISRDNAKNTVYLQMNSLKPEDTAVYYCNAEIGWHNEGRLSTYDYWGQGTQVTVSS”, the “polyreactivity (PSR sort gate)” value was “low polyreactivity”.

As for “QVQLVESGGGLVQAGGSLSLICAASGRTFGPNTMGWYRQAPGKERELVAAITGSGGSTYYADSVKGRFTISRDNAKNTVYLQMNSLKPEDTAVYYCAKSVRYPASDYWGQGTQVTVSS”, the “polyreactivity (PSR sort gate)” value was “low polyreactivity”.

On to “QVQLVESGGGLVQAGGSLSLSCAASGFIFGAYAMGWYRQAPRKERELVADITQNSGSTYYADSVKGRFTISRDNAKYTVYLQMNSVKPEVTAVYFCNADWETADDYWGQGTQVTVSS”, for which the “polyreactivity (PSR sort gate)” value is recorded as “low polyreactivity”.

Consider “QVQLVESGGGLVQAGGSLSLSCAASGFIFGGYAMGWYRQAPGKERELVAAITWSGGNTYYADSVKGRFTISRDNAKNTVYLQMNSLKPEATAVYYCAADYWTKYVYWGQGTQVTVSS”, for which the “polyreactivity (PSR sort gate)” value was “low polyreactivity”.

Turning to “QVQLVESGGGLVQAGGSLSLSCAASGFIFLGNAMGWYRQAPGKEREVVAAISSGGSTYADSVKGRFTISRDHAKNTVYLQMNSLKPEDTAVYYCAVDRAFRAQNYHEYDYWGQGSQVTVSS”, the “polyreactivity (PSR sort gate)” value was “low polyreactivity”.

Take “QVQLVESGGGLVQAGGSLSLSCAASGFIFYRYAMGWYRQAPGKERELVAGISSRGGSTYYADSVKGRFTISRDNAKNTVYLQMNSLKPEDTAVYYCAKRPLTSNASQGDYWGQGTQVTVSS”: the “polyreactivity (PSR sort gate)” value is on record as “high polyreactivity”.

For the sequence “QVQLVESGGGLVQAGGSLSLSCAASGFTFDYYAMGWYRQAPGKERELVAAISTSGGSTYYADSVKGRFTISRDNAMNTVYLQMNSLKPEDTAVYYCNVVFYEYSSVSYDYWGQGTQVTVSS”, the “polyreactivity (PSR sort gate)” value is “high polyreactivity”.

With “QVQLVESGGGLVQAGGSLSLSCAASGGIFARNVMGWYRQAPGKERELVADISGSGGSTYYADSVKGRFTISRDNAKNTVYLQMNSLKPEDTAVYYCAARTPGVSVYKDGYWGQGTQVTVSS”, the “polyreactivity (PSR sort gate)” value was “low polyreactivity”.

With “QVQLVESGGGLVQAGGSLSLSCAASGIFKYYMGWYRQAPGKERELVAGITKRGGSTYYADSVKGRFTISRDNAKNTVYLQKNSLKPEDTAVYYCNAVGPKRYDYWGQGTQVTVSS”, the “polyreactivity (PSR sort gate)” value was “high polyreactivity”.

Turning to “QVQLVESGGGLVQAGGSLSLSCAASGIIFGSYAMGWYRQAPGKESELVAAITSRGSSTRYADSVKGRFTISRDNAKNTVYLQMNSLKPEDTAVYYCATKVVVAHLPGYYYWGQGTQVTVSS”, the “polyreactivity (PSR sort gate)” value is recorded as “high polyreactivity”.

Turning to “QVQLVESGGGLVQAGGSLSLSCAASGIIFYDYAMGWYRQAPGKERELVAVISRSGGSTYYADSVKGRFTISRDNAKNTVYLQMNSLNPEDTAVYYCARAYSLRVVTGDYWGQGTQVTVSS”, the “polyreactivity (PSR sort gate)” value is “high polyreactivity”.

Consider “QVQLVESGGGLVQAGGSLSLSCAASGITFVFYTMGWYRQAPGKERELVAAISRSGASTYYADSVKGRFTISRDNAKNTVYLQMNSLKPQDTAVDYCAADRGYRFRMDYWGQGTQVTVSS”, for which the “polyreactivity (PSR sort gate)” value was “high polyreactivity”.

In the case of “QVQLVESGGGLVQAGGSLSLSCAASGLILSDNAMGWYRQAPGKEREFVASITSSGGSTHYADSVKGRFTISRDNAKNTVYFQMNSLKPEDTAVYYCAKDYYEGDSYPYPGYEYWGQGTQVTVSS”, the “polyreactivity (PSR sort gate)” value is “low polyreactivity”.
